Data on two molecules can be found in article PMC10660547 (Antibodies, 2023).

Assay [1] addresses anti-IgD nanobody 072 (not stated (a llama and an alpaca were immunised)). The assay can be described thus: SPR; aδNb072 (100 nM) captured by an anti-His-tag antibody on a CM5 chip; Fab flowed over, two-fold dilution series 200 nM to 3 nM; Biacore T200, 25 °C, 10 mM HEPES pH 7.4, 150 mM NaCl, 0.05% P20; KD from koff/kon. A general note: SPR reads the build-up and loss of mass on a sensor chip optically.

The target of assay [2] is T1, Phl p 7 (with a C-terminal tryptophan residue, biotinylated) (Phleum pratense (timothy grass), UniProt O82040, biotin (EZ-Link Maleimide-PEG2-Biotin)).
T1 construct: Phl p 7, polcalcin family 2-EF hand protein of timothy grass (Phleum pratense) pollen; C-terminal tryptophan residue added to aid spectrophotometric detection; also called biotinylated Phl p 7; timothy grass pollen allergen Phl p 7; source: E. coli BL21(DE3), purified (HisTrap FF Crude, SEC Superdex 75)
T1 sequence (O82040 whole entry, looked up): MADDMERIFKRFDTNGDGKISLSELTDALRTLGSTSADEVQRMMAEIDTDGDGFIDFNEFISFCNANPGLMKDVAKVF
The assay can be described thus: SPR; biotinylated Phl p 7 immobilised on an SA chip, 50 nM HAPPID1 Fab captured by it, aδNb072 flowed over (200 nM to 3 nM); 25 °C, 10 mM HEPES pH 7.4, 150 mM NaCl, 0.05% P20, 5 mM CaCl2. Particulars: both partners purified.

Chain of anti-IgD nanobody 072 (not stated (a llama and an alpaca were immunised)) (heavy, as listed by the source): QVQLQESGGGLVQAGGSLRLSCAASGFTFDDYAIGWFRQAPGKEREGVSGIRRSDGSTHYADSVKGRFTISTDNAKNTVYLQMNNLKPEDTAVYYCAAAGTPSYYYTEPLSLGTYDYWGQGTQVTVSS

B1: HAPPID1 Fab with a C-terminal glycine4-serine linker and SpyTag on the heavy chain (Fab, V domains shown)
VH: QVQLVQSGAEVRNPGASVKVSCKASGYTFTSYAIHWVRQAPGHRLEWVGRINTDNGNTKYSQKFHGRVALSRDTSASTTYMDLSSLNSEDTAVYYCARAFYYSSGVMFDSWGQGALVTVSS
VL: QSALTQPPSVSGAPGQRVSISCTGGSSNFGAGYDVHWYQQLPATAPKLLIYGNNNRPSGVPDRFSGSKSGTSASLAITGLQAEDEGDYFCQSFDTSLSGWIFGGGTKLTVL
notes: as the heavy chain of m2 (VH of clone 102.1F10 with human Cδ1); as the light chain of m2 (lambda light chain of the HAPPI1 antibodies); Derived from pVITRO1-HAPPID1; also called SpyTagged HAPPID1 Fab; not shown: glycine4-serine linker and SpyTag, C-terminal, kept
The term Kd denotes the constant that tells how readily two partners part at equilibrium. A high value points to a looser complex. Broadly, the koff is the first-order rate constant of dissociation. The term kon denotes a measure of how fast the partners come together. Lower therefore signals slow association. In assay [1], B1 registered a Kd of 1.4 nM, a koff of 0.000822 s⁻¹ and an on-rate (kon) of 586000 M⁻¹ s⁻¹. Besides, in assay [2], the binding result is on record as “binds”.

B2: HAPPIE1 Fab (SpyTagged) (Fab, V domains shown)
VH: B1 VH
VL: B1 VL
In assay [1], B2 came in with a Kd of 3.64 nM, a koff of 0.000829 s⁻¹ and a kon of 228000 M⁻¹ s⁻¹.
